Test results reported in patent US20250145697A1 (WASHINGTON UNIVERSITY, published 2025).

Columns and labels:
[1] = target: T1, murine ApoE (mouse, UniProt P08226 19-311); assay: Western blot of mouse brain lysates
T1 sequence (looked up): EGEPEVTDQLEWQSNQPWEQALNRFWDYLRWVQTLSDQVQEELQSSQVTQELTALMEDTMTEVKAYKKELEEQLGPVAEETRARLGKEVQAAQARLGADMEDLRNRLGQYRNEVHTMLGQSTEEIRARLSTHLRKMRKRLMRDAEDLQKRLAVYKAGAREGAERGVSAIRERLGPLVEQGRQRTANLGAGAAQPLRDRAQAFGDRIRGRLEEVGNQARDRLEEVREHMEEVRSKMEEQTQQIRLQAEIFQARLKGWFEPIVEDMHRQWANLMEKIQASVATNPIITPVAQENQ
Excerpt: Brain lysates from apoE KO mice or mice expressing human apoE3, human apoE4 or murine apoE were immunoblotted with HJ151, HJ152, HJ153, and HJ154. A commercial apoE antibody GA-50 was used as a positive control.

[2] = target: T2, recombinant alipidated human ApoE2 (human, UniProt P02649 19-317); assay: direct ELISA on coated recombinant alipidated ApoE (0.5 ug/ml)
T2 construct: mature; full length recombinant protein made in E. coli or bought
T2 sequence (P02649 19-317 R176C): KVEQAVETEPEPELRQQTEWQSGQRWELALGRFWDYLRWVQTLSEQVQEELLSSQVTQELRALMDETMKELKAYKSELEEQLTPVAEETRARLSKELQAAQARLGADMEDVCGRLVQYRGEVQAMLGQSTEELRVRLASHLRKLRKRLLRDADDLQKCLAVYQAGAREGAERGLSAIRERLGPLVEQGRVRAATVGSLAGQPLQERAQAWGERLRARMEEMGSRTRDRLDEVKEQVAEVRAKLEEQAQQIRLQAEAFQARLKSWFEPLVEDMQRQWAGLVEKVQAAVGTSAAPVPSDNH
Procedure, shortened: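 Antibody dose-response curves were built by HRP-conjugated goat anti-mouse IgG detection of anti-ApoE antibodies bound to blocked plates. The coat was full-length alipidated recombinant ApoE at 0.5 μg/ml, applied overnight, either E. coli-expressed and purified or commercially sourced.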

[3] = target: T2, recombinant alipidated human ApoE2; assay: ELISA: untreated ApoE2 coated at 0.5 ug/ml, antibody titrated, HRP goat anti-mouse IgG, OD650
Procedure: The aggregated ApoE was induced by incubating ApoE at 1 mg/ml concentration at 40° C. for 24 hours. The aggregates then were recovered in the pellet fraction following ultracentrifugation at 186,000 g for 1 hour. For ELISA, the untreated ApoE or heat-induced aggregates of ApoE were coated directly to ELISA plates at 0.5 μg/ml overnight at 4° C. After three washes with PBS, the wells were blocked with 1% BSA-PBS for 1 hour at room temperature with shaking at 500 rpm. The blocked wells were washed once with PBS and subsequently loaded with antibodies at serial concentrations (starting at 100 nM with 5-fold dilutions thereafter). Bound antibodies were detected with HRP-labeled goat anti-mouse IgG (Jackson Immunoresearch) and visualized with TMB substrate at OD₆₅₀ (reaction stopped with BioFX stop solution).

binding result [1]: no binding | EC50 [2]: 0.25 nM | EC50 (read off the curve) [3]: ~0.2 nM
B1: HJ154 (antibody, V domains shown)
VH: QVQLQQPGTEFVMSGASVMLSCKASGYIFTNYWLHWVKQRPGHGLEWIGEIDPSDSYSICNDNFKGKSTLTVDKSSSTAYMQLSSLTSEDSAVYYCAGSLGRVGLAYWGQGTLVTVST
VL: QIVLTQSPAIMSASPGEKVTMSCSASSSVSNMYWYQQKPGSSPKSWIYRTSNLASGVPARFSGSGSGTSYSLTISNMEAEDAATYYCQHYQNYPLTFGAGTKLELKR
notes: murine monoclonal antibody from hybridoma; also called HJ154B (biotinylated)
